Test results as given in patent US20260049134A1 (UNIVERSITY OF FLORIDA RESEARCH FOUNDATION, published 2026).

T1: CADM1-His (Acro Biosystems) (human, UniProt Q9BY67 45-374)
T1 construct: Bought; also called CADM1/IGSF4A; not shown: His tag of the bought protein
T1 sequence: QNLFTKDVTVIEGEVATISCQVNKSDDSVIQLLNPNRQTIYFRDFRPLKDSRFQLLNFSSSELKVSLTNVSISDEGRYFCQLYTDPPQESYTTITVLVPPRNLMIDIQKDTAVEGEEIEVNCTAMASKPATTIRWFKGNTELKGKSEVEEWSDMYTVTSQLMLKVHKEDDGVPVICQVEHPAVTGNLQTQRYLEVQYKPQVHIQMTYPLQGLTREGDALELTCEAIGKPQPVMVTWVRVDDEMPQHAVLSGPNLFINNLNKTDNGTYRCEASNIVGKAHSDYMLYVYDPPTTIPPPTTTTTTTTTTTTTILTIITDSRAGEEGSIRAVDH

T2: IL13RA1
T2 construct: coated protein in the ELISA; also called IL13RA1-Fc-His (R&D Systems)
T2 chain: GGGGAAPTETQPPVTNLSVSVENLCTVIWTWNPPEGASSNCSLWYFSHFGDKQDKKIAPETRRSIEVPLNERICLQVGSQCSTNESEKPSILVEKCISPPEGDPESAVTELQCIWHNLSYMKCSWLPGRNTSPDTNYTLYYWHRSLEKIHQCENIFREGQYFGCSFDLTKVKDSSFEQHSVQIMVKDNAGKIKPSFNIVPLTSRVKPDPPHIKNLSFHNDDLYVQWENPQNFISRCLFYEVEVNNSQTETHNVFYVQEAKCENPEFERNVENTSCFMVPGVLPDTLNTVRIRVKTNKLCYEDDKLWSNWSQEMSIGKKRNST

T3: HHLA2 (B7-H7)
T3 construct: coated protein in the ELISA; also called HHLA2-Fc (R&D Systems)
T3 chain: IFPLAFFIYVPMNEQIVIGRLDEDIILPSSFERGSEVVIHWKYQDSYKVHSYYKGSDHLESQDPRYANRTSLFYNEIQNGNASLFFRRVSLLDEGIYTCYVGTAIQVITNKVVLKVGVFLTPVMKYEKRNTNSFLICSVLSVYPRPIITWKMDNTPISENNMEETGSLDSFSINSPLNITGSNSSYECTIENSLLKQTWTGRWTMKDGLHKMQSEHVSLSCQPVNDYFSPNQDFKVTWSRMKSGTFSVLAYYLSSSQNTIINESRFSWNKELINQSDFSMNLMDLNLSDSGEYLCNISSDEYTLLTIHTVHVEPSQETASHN

T4: GARS-His (Sino Biological) (human, UniProt P41250 37-739, limits assumed)
T4 construct: Bought; also called GARS1; glycyl-tRNA synthetase; not shown: His tag of the bought protein
T4 sequence: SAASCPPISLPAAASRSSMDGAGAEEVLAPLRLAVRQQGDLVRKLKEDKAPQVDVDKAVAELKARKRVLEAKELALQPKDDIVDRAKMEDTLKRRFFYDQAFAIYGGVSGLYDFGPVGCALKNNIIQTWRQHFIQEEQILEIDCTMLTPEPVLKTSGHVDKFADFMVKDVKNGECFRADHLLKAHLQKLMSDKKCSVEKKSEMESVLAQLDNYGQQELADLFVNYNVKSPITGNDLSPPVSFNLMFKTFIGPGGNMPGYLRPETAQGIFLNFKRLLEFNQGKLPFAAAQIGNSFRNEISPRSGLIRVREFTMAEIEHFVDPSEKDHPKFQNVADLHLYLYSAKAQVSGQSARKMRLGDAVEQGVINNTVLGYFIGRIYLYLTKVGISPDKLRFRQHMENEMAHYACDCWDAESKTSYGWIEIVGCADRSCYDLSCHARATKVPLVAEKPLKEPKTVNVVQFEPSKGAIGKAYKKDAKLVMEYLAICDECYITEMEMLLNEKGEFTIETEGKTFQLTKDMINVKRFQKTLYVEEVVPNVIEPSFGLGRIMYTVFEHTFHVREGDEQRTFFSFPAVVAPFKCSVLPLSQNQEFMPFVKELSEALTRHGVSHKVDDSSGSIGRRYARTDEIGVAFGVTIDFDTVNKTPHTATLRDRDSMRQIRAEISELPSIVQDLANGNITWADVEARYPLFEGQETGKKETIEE

T5: GARS, endogenous in H929 multiple myeloma cells (human, UniProt P41250 37-739, limits assumed)
T5 construct: Native protein pulled down from H929 lysates; also called Glycyl-tRNA synthetase; GlyRS
T5 sequence: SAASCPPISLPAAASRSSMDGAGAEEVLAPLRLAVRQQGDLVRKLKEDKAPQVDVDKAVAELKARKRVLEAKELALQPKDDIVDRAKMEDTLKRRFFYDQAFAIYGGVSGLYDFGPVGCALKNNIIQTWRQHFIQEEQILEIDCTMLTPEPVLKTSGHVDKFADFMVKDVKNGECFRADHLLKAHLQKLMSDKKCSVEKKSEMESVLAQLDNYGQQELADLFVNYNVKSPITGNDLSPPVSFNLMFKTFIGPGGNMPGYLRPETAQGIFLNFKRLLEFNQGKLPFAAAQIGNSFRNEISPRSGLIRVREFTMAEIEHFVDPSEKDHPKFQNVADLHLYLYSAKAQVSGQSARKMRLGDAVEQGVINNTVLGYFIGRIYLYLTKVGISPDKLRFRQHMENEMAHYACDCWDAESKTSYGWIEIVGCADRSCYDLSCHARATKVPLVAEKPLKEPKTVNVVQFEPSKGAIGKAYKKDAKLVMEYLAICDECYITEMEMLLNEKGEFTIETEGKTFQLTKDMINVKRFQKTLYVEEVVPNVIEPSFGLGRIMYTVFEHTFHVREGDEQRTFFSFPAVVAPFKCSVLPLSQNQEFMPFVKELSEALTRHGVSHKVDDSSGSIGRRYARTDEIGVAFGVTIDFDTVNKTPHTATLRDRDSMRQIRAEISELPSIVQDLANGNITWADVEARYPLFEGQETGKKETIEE


Legend:
[1] = molecular target: T1, CADM1-His (Acro Biosystems); assay: ELISA on coated CADM1-His, 150 ng IgG1; None 0.059
Procedure: (§1) Recombinant purified ECDs (50-150 ng) of each putative target protein were coated, incubated with 150 ng of the indicated primary antibody, and binding was detected using a peroxidase-conjugated anti-human Fab secondary antibody. Heatmap represents averages of technical triplicates. (8B) Target validation via siRNA knockdown. H929 cells were transfected with siRNA pools targeting the putative antibody targets ICAM1, CADM1, and PTPRG. Cells were then subjected to cognate IgG binding analysis via flow cytometry. (NT, non-targeting siRNA).
(§2) ELISA ELISA was conducted as described previously. Briefly, 50-150 ng of antigen was coated overnight in half-area 96-well plates at 4° C., blocked with 3% BSA at 37° C. for 1 h, and 150 ng of chimeric rabbit/human IgG1 was added, incubating for 2 h at 37° C. […] After incubating at 37° C. for 15 min-1 h (depending on intensity of controls), data were acquired using a SpectraMax M5 plate reader (Molecular Devices).

[2] = molecular target: T2, IL13RA1; assay: ELISA on coated IL13RA1-Fc-His, 150 ng IgG1; None 0.094
Procedure: as §1, §2

[3] = molecular target: T3, HHLA2 (B7-H7); assay: ELISA on coated HHLA2-Fc, 150 ng IgG1; None 0.087
Procedure: as §1, §2

[4] = molecular target: T4, GARS-His (Sino Biological); assay: ELISA on coated GARS-His, 150 ng IgG1; None 0.099
Procedure: as §1, §2

[5] = molecular target: T5, GARS, endogenous in H929 multiple …; assay: flow cytometry, H929 + PTPRG siRNA; None 2.13; surface target GARS putative
[6] = molecular target: T6, ICAM1-Fc (R&D Systems) (human, UniProt P05362 28-480); assay: ELISA on coated ICAM1-Fc
T6 construct: Bought; also called ICAM-1/CD54; not shown: Fc of the bought fusion protein
Procedure: as §1, §2

T6 sequence (P05362 28-480): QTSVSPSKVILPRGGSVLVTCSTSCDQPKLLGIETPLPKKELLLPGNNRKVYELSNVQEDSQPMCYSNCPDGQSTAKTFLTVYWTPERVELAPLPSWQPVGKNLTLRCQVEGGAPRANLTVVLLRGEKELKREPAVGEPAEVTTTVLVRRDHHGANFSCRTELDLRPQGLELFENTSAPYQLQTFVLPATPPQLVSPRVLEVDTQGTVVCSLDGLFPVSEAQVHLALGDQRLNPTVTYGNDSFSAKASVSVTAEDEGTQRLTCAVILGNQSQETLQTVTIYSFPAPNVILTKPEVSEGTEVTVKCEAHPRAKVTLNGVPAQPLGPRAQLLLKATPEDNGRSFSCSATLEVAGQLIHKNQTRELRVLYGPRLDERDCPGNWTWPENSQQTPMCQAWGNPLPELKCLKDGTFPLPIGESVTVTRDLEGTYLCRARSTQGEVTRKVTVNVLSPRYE

Row | Binder | ELISA Absorbance (405 nm-570 nm) [1] | ELISA Absorbance (405 nm-570 nm) [2] | ELISA Absorbance (405 nm-570 nm) [3] | ELISA Absorbance (405 nm-570 nm) [4] | Cells stained (%) [5] | binding result [6]
1 | HW-56 chimeric rabbit-human IgG1 LA/LA/PG (antibody, V domains shown, Fc-silenced (L234A/L235A/P329G) IgG1, kappa; Alexa Fluor 647-labeled in single-step flow cytometry; Cluster C-45) VH: QSVKESEGGLFKPTDTLTLTCTASGFTVSTNAVTWVRQAPGNGLEYIGTIGRSGSAYFASWAKRRSTLTRDINLNTVTLKMTSLTAADTATYFCVRGSPGYRTAISIWGPGTLVTISS VL: AVMTQTPSSTSAAVEGTVTINCQASQSISNRLSWFQQKPGQPPKLLIYQASTLASGVPSRFKGSGSGTEFTLTISGVQREDAATYYCLGSYSSSDASFGGGTKLEIKR | 0.059 | 0.16 | 0.076 | 0.651 | 99.8% | no binding (tested: 150 ng IgG1 per well)
2 | HW-81 chimeric rabbit-human IgG1 LA/LA/PG (antibody, V domains shown, Fc-silenced (L234A/L235A/P329G) IgG1, lambda; Alexa Fluor 647-labeled in single-step flow cytometry; Cluster C-45) VH: QKQLVESGGGLVTPGGTLTLTCTVSGFSLSSNGVSWVRQAPGKGLEYIGLIRSIGSTYYATWAKGRFTISKTSTTVDLKITSPTTEDTATYFCARGGYRNGFKLWGPGTLVTVSS VL: QPVLTQSPSVSAALGASAKLTCTLSSAHKTYYIEWYQQQHPGKAPRYLMQLQSDGSYTKGTGVPDRFSGSSSGADRYLIISSVQAEDEADYICGVIDSAVYVFGGGTQLTVTG | 0.05 | 0.099 | 0.072 | 0.641 | 100% | no binding (tested: 150 ng IgG1 per well)
3 | HW-8 chimeric rabbit-human IgG1 LA/LA/PG (antibody, V domains shown, Fc-silenced (L234A/L235A/P329G) IgG1, kappa; Alexa Fluor 647-labeled in single-step flow cytometry; Cluster C-45) VH: QSLEESGGRLVTPGTPLTLTCTVSGFSLSSYAMSWVRQAPGKGLEWIGAISTGGSTTYASWAKGRFTISKTSSTTVDLKMTSLTTEDTATYFCVRHFRLWGPGTLVTISS VL: QVLTQTPSSVSAAVGGTVTIKCQASQSIGSALAWFQQKPGQRPKLLIYRASNLASGVPSRFKGSGSGTEFALTISGVQREDAATYYCLGGAAAVWAFGAGTNVEIKR | 0.05 | 0.077 | 0.073 | 0.081 | 84.3% | –

The next lines start with results.

Row | ELISA Absorbance (405 nm-570 nm) [1] | ELISA Absorbance (405 nm-570 nm) [2] | ELISA Absorbance (405 nm-570 nm) [3] | ELISA Absorbance (405 nm-570 nm) [4] | Cells stained (%) [5] | Binder | binding result [6]
4 | 0.058 | 0.086 | 0.071 | 0.088 | – | HW-113 chimeric rabbit-human IgG1 LA/LA/PG (antibody, V domains shown, Fc-silenced (L234A/L235A/P329G) IgG1, lambda; Alexa Fluor 647-labeled in single-step flow cytometry) VH: QKQLVESGGGLVQPGGSLTLTCTVSGFSLNKYYMGWFRQAPGKGLEWIGVISRSGDTYYSSWAKGRFTISKASTTVDLRITSPTTEDTATYFCARDASSPGFHGDRLDLWGQGTLVTVSS VL: SFVLTQPASVQVNLGQTVSLTCTADTLSRSYASWYQQKPGQAPVLLIYRDTSRPSGVPDRFSGSSSGNTATLTISGAQAGDEADYYCATSDGIGSNYLWVFGGGTQLTVTG | –
5 | 0.679 | 0.08 | 0.079 | 0.079 | – | HW-97 chimeric rabbit-human IgG1 LA/LA/PG (antibody, V domains shown, Fc-silenced (L234A/L235A/P329G) IgG1, lambda; Alexa Fluor 647-labeled in single-step flow cytometry; Prototype of cluster C-97) VH: QKQLVESGGRLVTPGTPLTLTCTVTGIDLSSHGMSWVRQAPGKGLEWIGVIYPSGSTWYASWARGRFTISKTSTTVDLKMTSLTTEDTATHFCARGDVGGADNNIWGPGTLVTVSS VL: SFVLTQPASVQVDLGQTVSLTCTAETLSRSYASWYQQKPGQAPVLLIYRDTSRPSGVPDRFSGSSSGNTATLTISGAQAGDEADYYCATSDGSGSSYQYVFGGGTQLTVTG | –
